Columns and labels:
[1] = molecular target: T1, PCSK9-D374Y-BP15-His6 (human, UniProt Q8NBP7 31-692, biotin on the BP15 biotin receiving peptide); experiment: ELISA, bio-PCSK9-Y captured on streptavidin plate
T1 construct: also called PCSK9-Y; mutant PCSK9
Protocol: The binding ability of anti-PCSK9 antibodies of the present invention to PCSK9-Y was detected by measuring the amount of antibodies binding to PCSK9-Y (mutant PCSK9, SEQ ID NO: 6) fixed on the ELISA plate.
Streptavidin (sigma, CAT#54762) was diluted to 2 μg/ml with PBS and coated into 96-well ELISA plate at 4° C. overnight. The plate was washed and then blocked with Tris buffer (including 0.9 mM CaCl₂, 0.05% Tween 20 and 5% skim milk) at 37° C. for 2 hours. Then the plate was washed again and 100 μl/well of the biotin-labeled PCSK9-Y, produced in-house, (bio-PCSK9-Y, diluted with Tris buffer containing 0.9 mM CaCl₂, 0.05% Tween 20 and 1% skim milk) was added and incubated at 37° C. for 1 hour. After the wash step, different concentrations of diluted PCSK9 antibody samples were added to the plate and incubated at 37° C. for 1 hour. Then the plate was washed again and HRP-goat-anti-human (H+L) antibody (Jackson ImmunoResearch, CAT#109-035-088) was added and incubated at 37° C. for 1 hour. Then the plate was washed again and tetramethylbenzidine solution was added for development. Finally, the stop solution was added and the OD450 value was measured on the Microplate reader, and then EC50 was calculated.
The results of ELISA test for the binding ability of chimeric antibodies and back-mutated antibodies of the present invention to mutant PCSK9 are shown in table 6.

[2] = molecular target: T2, PCSK9-BP15-His6 (human, UniProt Q8NBP7 31-692, biotin on the BP15 biotin receiving peptide); experiment: blocking ELISA, LDLR-FC (SEQ ID NO: 8) coated, bio-WT-PCSK9 plus antibody
T2 construct: It holds a signal peptide (underlined in print); also called WT PCSK9; bio-WT-PCSK9
Protocol: The blocking abilities of PCSK9 antibodies of the present invention to the binding of LDLR-FC (produced in-house, sequence is shown in SEQ ID NO: 8) to PCSK9 (SEQ ID NO: 5) were detected by measuring the amount of PCSK9 binding to LDLR in the presence of the antibodies.
LDLR-FC was diluted to 5 μg/ml with phosphate buffer and coated in the 96-well ELISA plate, then incubated at 4° C. overnight. The plate was washed and then blocked with Tris buffer (including 0.9 mM CaCl₂, 0.05% Tween 20 and 5% skim milk) at 37° C. for 2 hours. Then the plate was washed again and 100 μl/well of the mixture of biotin-labeled PCSK9 (bio-WT-PCSK9, diluted to the final concentration of 2 μg/ml with Tris buffer containing 0.9 mM CaCl₂, 0.05% Tween 20 and 1% skim milk) and antibody samples (diluted with Tris buffer containing 0.9 mM CaCl₂, 0.05% Tween 20 and 1% skim milk) were added and incubated at 37° C. for 1 hour. Then the plate was washed again and horseradish peroxidase-streptavidin (Sigma, CAT#52438) was added and incubated at 37° C. for 1 hour. Then the plate was washed and tetramethylbenzidine solution was added for development. Finally, the stop solution was added and the OD450 was measured on the Microplate reader, then IC50 was calculated.

[3] = molecular target: T1, PCSK9-D374Y-BP15-His6; experiment: blocking ELISA, LDLR-FC (SEQ ID NO: 8) coated, bio-PCSK9-Y plus antibody
Protocol: The blocking abilities of anti-PCSK9 antibodies to the binding of LDLR-FC (SEQ ID NO: 8) to PCSK9-Y (mutant PCSK9, SEQ ID NO: 6) were detected by measuring the amount of PCSK9-Y binding to LDLR in the presence of the antibodies.
LDLR-FC was diluted to 2 μg/ml with phosphate buffer and coated in the 96-well ELISA plate (Costar, CAT#3590), then incubated at 4° C. overnight. The plate was washed and then blocked with Tris buffer (including 0.9 mM CaCl₂, 0.05% Tween 20 and 5% skim milk) at 37° C. for 2 hours. Then the plate was washed again and 100 μl/well of the mixture of biotin-labeled PCSK9-Y (bio-PCSK9-Y, diluted to final concentration of […] with Tris buffer containing 0.9 mM CaCl₂, 0.05% Tween 20 and 1% skim milk) and antibody samples (diluted with Tris buffer containing 0.9 mM CaCl₂, 0.05% Tween 20 and 1% skim milk) were added and incubated at 37° C. for 1 hour. Then the plate was washed again and horseradish peroxidase-streptavidin (sigma, CAT#S2438) was added and incubated at 37° C. for 1 hour. Then the plate was washed and tetramethylbenzidine solution was added for development. Finally, the stop solution was added and the OD450 value was measured on the Microplate reader, then IC50 was calculated.
The results of blocking test for the blocking effects of the chimeric antibodies and back-mutated antibodies of the present invention on the binding of LDLR-FC/PCSK9-Y are shown in table 7.

[4] = molecular target: T2, PCSK9-BP15-His6; experiment: ELISA, bio-WT-PCSK9 captured on streptavidin plate
Protocol: The binding ability of anti-PCSK9 antibodies of the present invention to PCSK9 was detected by measuring the amount of antibodies binding to wild-type PCSK9 protein (WT PCSK9, SEQ ID NO: 5) fixed on the ELISA plate.
Streptavidin (sigma, CAT#S4762) was diluted to 2 μg/ml with PBS and coated into 96-well ELISA plate, at 4° C. overnight. The plate was washed and then blocked with Tris buffer (including 0.9 mM CaCl2, 0.05% Tween 20 and 5% skim milk) at 37° C. for 2 hours. Then the plate was washed again and 100 μl/well of the biotin-labeled PCSK9, produced in-house, (bio-WT-PCSK9, diluted with Tris buffer containing 0.9 mM CaCl2, 0.05% Tween 20 and 1% skim milk), was added and incubated at 37° C. for 1 hour. After the wash step, different concentrations of diluted PCSK9 antibody samples was added to the plate and incubated at 37° C. for 1 hour. Then the plate was washed again and HRP-goat-anti-human (H+L) antibody (Jackson ImmunoResearch, CAT#109-035-088) was added and incubated at 37° C. for 1 hour. Then the plate was washed again and tetramethylbenzidine solution was added for development. Finally, the stop solution was added and the OD450 value was measured on the Microplate reader, and then EC50 was calculated.

EC50 [1] [µg/mL] | IC50 [2] [µg/mL] | IC50 [3] [µg/mL] | EC50 [4] [µg/mL] | Binder
0.0132 | 0.836 | 0.392 | 0.0084 | Ch-001 (antibody, V domains shown, also called chimeric antibody) VH: QVHLQQSGAELAKPGASVKLSCKASGYTFNDYWMHWVKERPGQGLEWIGYINPSSGFTKYHQNFKDKATLTADKSSSTAYMQLSSLTYDDSAVYYCARQYDYDEDWYFDVWGTGTTVTVSS VL: DIVMSQSPSSLAVSAGEKVTMSCKSSQSLLNSRTRKNFLAWYQQKPGQSPKLLIYWASTRESGVPDRFTGRGSGTDFTLTISSVQAEDLAVYYCKQSFNLFTFGSGTKLEIK
0.0132 | 0.5 | 0.566 | 0.0084 | h001-1 (antibody, human IgG1, V domains shown, Variable regions only; also called h001_VH.1 + h001_VL.1) VH: QVQLVQSGAEVKKPGASVKVSCKASGYTFTDYWMHWVRQAPGQGLEWMGYINPSSGFTKYHQNFKDRVTMTRDTSISTAYMELSRLRSDDTAVYYCARQYDYDEDWYFDVWGQGTTVTVSS VL: DIQMTQSPSSLSASVGDRVTITCKSSQSLLNSRTRKNFLAWYQQKPGKAPKLLIYWASTRESGVPSRFSGSGSGTDFTLTISSLQPEDFATYYCKQSFNLFTFGQGTKLEIK
0.0137 | 0.652 | 0.515 | 0.012 | h001-7 (antibody, human IgG1, V domains shown, Variable regions only; also called h001_VH.1A + h001_VL.1B) VH: QVQLVQSGAEVKKPGASVKVSCKASGYTFNDYWMHWVRQAPGQGLEWMGYINPSSGFTKYHQNFKDRVTMTRDTSISTAYMELSRLRSDDTAVYYCARQYDYDEDWYFDVWGQGTTVTVSS VL: DIQMSQSPSSLSASVGDRVTITCKSSQSLLNSRTRKNFLAWYQQKPGKAPKLLIYWASTRESGVPDRFSGSGSGTDFTLTISSLQPEDFATYYCKQSFNLFTFGQGTKLEIK
0.0157 | 0.675 | 0.455 | 0.0123 | h001-2 (antibody, human IgG1, V domains shown, Variable regions only; also called h001_VH.1 + h001_VL.1A) VH: QVQLVQSGAEVKKPGASVKVSCKASGYTFTDYWMHWVRQAPGQGLEWMGYINPSSGFTKYHQNFKDRVTMTRDTSISTAYMELSRLRSDDTAVYYCARQYDYDEDWYFDVWGQGTTVTVSS VL: DIQMTQSPSSLSASVGDRVTITCKSSQSLLNSRTRKNFLAWYQQKPGKAPKLLIYWASTRESGVPDRFSGSGSGTDFTLTISSLQPEDFATYYCKQSFNLFTFGQGTKLEIK
0.0152 | 0.702 | 0.475 | 0.0113 | h001-3 (antibody, human IgG1, V domains shown, Variable regions only; also called h001_VH.1 + h001_VL.1B) VH: QVQLVQSGAEVKKPGASVKVSCKASGYTFTDYWMHWVRQAPGQGLEWMGYINPSSGFTKYHQNFKDRVTMTRDTSISTAYMELSRLRSDDTAVYYCARQYDYDEDWYFDVWGQGTTVTVSS VL: DIQMSQSPSSLSASVGDRVTITCKSSQSLLNSRTRKNFLAWYQQKPGKAPKLLIYWASTRESGVPDRFSGSGSGTDFTLTISSLQPEDFATYYCKQSFNLFTFGQGTKLEIK
0.0209 | 0.829 | 0.514 | 0.0176 | h001-10 (antibody, human IgG1, V domains shown, Variable regions only; also called h001_VH.1B + h001_VL.1A) VH: QVQLVQSGAEVKKPGASVKVSCKASGYTFTDYWMHWVRQAPGQGLEWMGYINPSSGFTKYHQNFKDRVTMTRDTSISTAYMELSRLTSDDTAVYYCARQYDYDEDWYFDVWGQGTTVTVSS VL: DIQMTQSPSSLSASVGDRVTITCKSSQSLLNSRTRKNFLAWYQQKPGKAPKLLIYWASTRESGVPDRFSGSGSGTDFTLTISSLQPEDFATYYCKQSFNLFTFGQGTKLEIK
0.0165 | 0.774 | 0.414 | 0.009 | h001-8 (antibody, human IgG1, V domains shown, Variable regions only; also called h001_VH.1A + h001_VL.1C) VH: QVQLVQSGAEVKKPGASVKVSCKASGYTFNDYWMHWVRQAPGQGLEWMGYINPSSGFTKYHQNFKDRVTMTRDTSISTAYMELSRLRSDDTAVYYCARQYDYDEDWYFDVWGQGTTVTVSS VL: DIVMSQSPSSLSASVGDRVTITCKSSQSLLNSRTRKNFLAWYQQKPGKSPKLLIYWASTRESGVPDRFSGSGSGTDFTLTISSLQPEDFATYYCKQSFNLFTFGQGTKLEIK
0.0152 | 4.32 | 0.468 | 0.0141 | h001-5 (antibody, human IgG1, V domains shown, Variable regions only; also called h001_VH.1A + h001_VL.1) VH: QVQLVQSGAEVKKPGASVKVSCKASGYTFNDYWMHWVRQAPGQGLEWMGYINPSSGFTKYHQNFKDRVTMTRDTSISTAYMELSRLRSDDTAVYYCARQYDYDEDWYFDVWGQGTTVTVSS VL: DIQMTQSPSSLSASVGDRVTITCKSSQSLLNSRTRKNFLAWYQQKPGKAPKLLIYWASTRESGVPSRFSGSGSGTDFTLTISSLQPEDFATYYCKQSFNLFTFGQGTKLEIK
0.0194 | 0.923 | 0.52 | 0.0136 | h001-9 (antibody, human IgG1, V domains shown, Variable regions only; also called h001_VH.1B + h001_VL.1) VH: QVQLVQSGAEVKKPGASVKVSCKASGYTFTDYWMHWVRQAPGQGLEWMGYINPSSGFTKYHQNFKDRVTMTRDTSISTAYMELSRLTSDDTAVYYCARQYDYDEDWYFDVWGQGTTVTVSS VL: DIQMTQSPSSLSASVGDRVTITCKSSQSLLNSRTRKNFLAWYQQKPGKAPKLLIYWASTRESGVPSRFSGSGSGTDFTLTISSLQPEDFATYYCKQSFNLFTFGQGTKLEIK
0.0144 | 0.662 | 0.437 | 0.01 | h001-6 (antibody, human IgG1, V domains shown, Variable regions only; also called h001_VH.1A + h001_VL.1A) VH: QVQLVQSGAEVKKPGASVKVSCKASGYTFNDYWMHWVRQAPGQGLEWMGYINPSSGFTKYHQNFKDRVTMTRDTSISTAYMELSRLRSDDTAVYYCARQYDYDEDWYFDVWGQGTTVTVSS VL: DIQMTQSPSSLSASVGDRVTITCKSSQSLLNSRTRKNFLAWYQQKPGKAPKLLIYWASTRESGVPDRFSGSGSGTDFTLTISSLQPEDFATYYCKQSFNLFTFGQGTKLEIK
